{"source": "the RNAGym collection of RNA variant scans (doi:10.1093/molbev/msab373)", "parents": {"B1": {"name": "Azoarcus group I ribozyme (parent)", "chain": "GUGCCUUGCGCCGGGAAACCACGCAAGGGAUGGUGUCAAAUUCGGCGAAACCUAAGCGCCCGCCCGGGCGUAUGGCAACGCCGAGCCAAGCUUCGGCGCCUGCGCCGAUGAAGGUGUAGAGACUAGACGGCACCCACCUAAGGCAAACGCUAUGGUGAAGGCAUAGUCCAGGGAGUGGCGAAAGUCACACAAACCGG"}}}
{"variants_of": "B1", "assay": "reverse-splicing fitness (ratio to wild type); higher = more active; in vitro selection; Mg2+ level not given", "summary_of_the_method": "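An in vitro group I ribozyme library with randomized positions was T7-transcribed and gel-purified. In triplicate, 10 pmol RNA in EPPS pH 7.5 was reacted with 50 pmoles of a 30-nt RNA substrate for 1 h at 37 °C across several added MgCl2 levels (1–48 mM), then stopped with EDTA. Products were reverse transcribed from a substrate-complementary primer, PCR-amplified and sequenced (HiSeq 4000). Fitness is a variant's read proportion after selection over that before, normalised to wild type.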"}
{"variant": "A111C A120C U176G", "reverse-splicing fitness": 0.0393}
{"variant": "A111C A120C U176A", "reverse-splicing fitness": 0.186}
{"variant": "A111C A120G", "reverse-splicing fitness": 0.185}
{"variant": "A111C A120C A145U C150A U176C", "reverse-splicing fitness": 0.0526}
{"variant": "A111C A120C A145U C150A U176G", "reverse-splicing fitness": 0.00986}
{"variant": "A111C A120C A145U C150A U176A", "reverse-splicing fitness": 0.0359}
{"variant": "A111C A120C A145U C169G U176A", "reverse-splicing fitness": 0.0103}
{"variant": "A111C A120C A145U C169G U176C", "reverse-splicing fitness": 0.0123}
{"variant": "A111C A120C A145U C169G U176G", "reverse-splicing fitness": 0.00445}
{"variant": "A111C A120C A145G C169U", "reverse-splicing fitness": 0.184}
{"variant": "A111C A120C A145G C169G", "reverse-splicing fitness": 0.0102}
{"variant": "A111C A120C A145G C169A", "reverse-splicing fitness": 0.0109}
{"variant": "A111C A120C A145G C150U C169A U176G", "reverse-splicing fitness": 0.00559}
{"variant": "A111C A120C C150A C169G", "reverse-splicing fitness": 0.00716}
{"variant": "A111C A120C C150A C169A", "reverse-splicing fitness": 0.00999}
{"variant": "A111C A120C C150A C169U", "reverse-splicing fitness": 0.0222}
{"variant": "A111C A120C A145U C150G U176G", "reverse-splicing fitness": 0.00607}
{"variant": "A111C A120C A145U C150G U176A", "reverse-splicing fitness": 0.0202}
{"variant": "A111C A120C A145U C150G U176C", "reverse-splicing fitness": 0.034}
{"variant": "A111C A120C C150A C169G U176G", "reverse-splicing fitness": 0.00744}
{"variant": "A111C A120C C150A C169G U176C", "reverse-splicing fitness": 0.021}
{"variant": "A111C A120C C150A C169G U176A", "reverse-splicing fitness": 0.0198}
{"variant": "A111C A120C A145U C150G C169G U176A", "reverse-splicing fitness": 0.00752}
{"variant": "A111C A120C A145U C150G C169G U176C", "reverse-splicing fitness": 0.00645}
{"variant": "A111C A120C A145U C150G C169G U176G", "reverse-splicing fitness": 0.00591}
{"variant": "A111C A120C A145U U176G", "reverse-splicing fitness": 0.0519}
{"variant": "A111C A120C A145U U176A", "reverse-splicing fitness": 0.222}
{"variant": "A111C A120C A145U U176C", "reverse-splicing fitness": 0.215}
{"variant": "A111C A120C C150A U176A", "reverse-splicing fitness": 0.0343}
{"variant": "A111C A120C C150A U176G", "reverse-splicing fitness": 0.0118}
{"variant": "A111C A120C C150A U176C", "reverse-splicing fitness": 0.0495}
{"variant": "A111C A120C A145G C150U C169G U176G", "reverse-splicing fitness": 0.00574}
{"variant": "A111C A120C A145G C150U C169G U176A", "reverse-splicing fitness": 0.0118}
{"variant": "A111C A120C A145G C150U C169G U176C", "reverse-splicing fitness": 0.0158}
{"variant": "A111C A120C C150A C169U U176A", "reverse-splicing fitness": 0.0208}
{"variant": "A111C A120C C150A C169U U176C", "reverse-splicing fitness": 0.0224}
{"variant": "A111C A120C C150A C169U U176G", "reverse-splicing fitness": 0.00635}
{"variant": "A111C A120G A145C C150A C169G U176C", "reverse-splicing fitness": 0.0161}
{"variant": "A111C A120G A145C C150A C169G U176G", "reverse-splicing fitness": 0.00527}
{"variant": "A111C A120G A145C C150A C169G U176A", "reverse-splicing fitness": 0.024}
{"variant": "A111C A120C A145U C150U C169G", "reverse-splicing fitness": 0.00917}
{"variant": "A111C A120C A145U C150U C169A", "reverse-splicing fitness": 0.0112}
{"variant": "A111C A120C A145U C150U C169U", "reverse-splicing fitness": 0.125}
{"variant": "A111C A120G A145C C150A C169U U176A", "reverse-splicing fitness": 0.0178}
{"variant": "A111C A120C C150G U176G", "reverse-splicing fitness": 0.00388}
{"variant": "A111C A120C C150G U176A", "reverse-splicing fitness": 0.0144}
{"variant": "A111C A120C C150G U176C", "reverse-splicing fitness": 0.0288}
{"variant": "A111C A120C C169A U176C", "reverse-splicing fitness": 0.0161}
{"variant": "A111C A120C C169A U176A", "reverse-splicing fitness": 0.0152}
{"variant": "A111C A120C C169A U176G", "reverse-splicing fitness": 0.00631}
{"variant": "A111C A120C A145G C150U C169G", "reverse-splicing fitness": 0.00981}
{"variant": "A111C A120C A145G C150U C169U", "reverse-splicing fitness": 0.147}
{"variant": "A111C A120C A145U C169A", "reverse-splicing fitness": 0.0119}
{"variant": "A111C A120C A145U C169U", "reverse-splicing fitness": 0.189}
{"variant": "A111C A120C A145U C169G", "reverse-splicing fitness": 0.00945}
{"variant": "A111C A120C A145G C169U U176C", "reverse-splicing fitness": 0.0425}
{"variant": "A111C A120C A145G C169U U176G", "reverse-splicing fitness": 0.00591}
{"variant": "A111C A120C A145G C169U U176A", "reverse-splicing fitness": 0.033}
{"variant": "A111C A120C A145U C150A C169G U176A", "reverse-splicing fitness": 0.0127}
{"variant": "A111C A120C A145U C150A C169G U176G", "reverse-splicing fitness": 0.00651}
{"variant": "A111C A120C A145U C150A C169G U176C", "reverse-splicing fitness": 0.0146}
{"variant": "A111C A120C A145U C150U", "reverse-splicing fitness": 0.415}
{"variant": "A111C A120C A145U C150G", "reverse-splicing fitness": 0.0621}
{"variant": "A111C A120C A145U C150A", "reverse-splicing fitness": 0.0648}
{"variant": "A111C A120C C169G U176G", "reverse-splicing fitness": 0.00524}
{"variant": "A111C A120C C169G U176C", "reverse-splicing fitness": 0.021}
{"variant": "A111C A120C C169G U176A", "reverse-splicing fitness": 0.0157}
{"variant": "A111C A120C A145U C150A C169A", "reverse-splicing fitness": 0.00839}
{"variant": "A111C A120C A145U C150A C169G", "reverse-splicing fitness": 0.00628}
{"variant": "A111C A120C A145U C150A C169U", "reverse-splicing fitness": 0.024}
{"variant": "A111C A120G A145C", "reverse-splicing fitness": 0.149}
{"variant": "A111C A120C C150G C169U U176A", "reverse-splicing fitness": 0.00759}
{"variant": "A111C A120C C150G C169U U176C", "reverse-splicing fitness": 0.014}
{"variant": "A111C A120C C150G C169U U176G", "reverse-splicing fitness": 0.00523}
{"variant": "A111C A120C C150G C169A U176A", "reverse-splicing fitness": 0.00884}
{"variant": "A111C A120C C150G C169A U176C", "reverse-splicing fitness": 0.00966}
{"variant": "A111C A120C C150G C169A U176G", "reverse-splicing fitness": 0.00561}
{"variant": "A111C A120C A145G U176A", "reverse-splicing fitness": 0.19}
{"variant": "A111C A120C A145G U176G", "reverse-splicing fitness": 0.0393}
{"variant": "A111C A120C A145G U176C", "reverse-splicing fitness": 0.203}
{"variant": "A111C A120C A145G C150U C169U U176G", "reverse-splicing fitness": 0.00486}
{"variant": "A111C A120C A145G C150U C169U U176C", "reverse-splicing fitness": 0.0438}
{"variant": "A111C A120C A145G C150U C169U U176A", "reverse-splicing fitness": 0.0283}
{"variant": "A111C A120C A145U", "reverse-splicing fitness": 0.589}
